{"source": "paper doi:10.1101/2024.01.07.574580", "key": {"[1]": {"target": "YY1 cellular transcription factor (UniProt P25490)", "sequence (P25490 whole entry)": "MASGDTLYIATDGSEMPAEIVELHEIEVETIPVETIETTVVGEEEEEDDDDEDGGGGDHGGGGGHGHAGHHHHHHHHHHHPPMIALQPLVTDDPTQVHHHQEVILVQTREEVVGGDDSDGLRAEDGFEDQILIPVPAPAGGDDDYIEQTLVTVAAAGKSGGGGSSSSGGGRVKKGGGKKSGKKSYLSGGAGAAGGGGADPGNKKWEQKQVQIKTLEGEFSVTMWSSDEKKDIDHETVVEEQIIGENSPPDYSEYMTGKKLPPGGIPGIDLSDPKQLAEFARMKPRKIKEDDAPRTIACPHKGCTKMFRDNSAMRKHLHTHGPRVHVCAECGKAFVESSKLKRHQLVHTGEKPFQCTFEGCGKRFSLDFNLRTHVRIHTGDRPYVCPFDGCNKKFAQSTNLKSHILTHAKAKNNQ", "assay": "co-immunoprecipitation (YY1 IP, FLAG-EBNA-LP immunoblot, band signal quantified)", "details": "50% IP lanes; trans-complemented LPKO LCLs; parent: 1"}, "[2]": {"target": "YY1 cellular transcription factor (UniProt P25490)", "assay": "co-immunoprecipitation (FLAG-EBNA-LP IP, YY1 immunoblot, band signal quantified)", "details": "50% IP lanes; trans-complemented LPKO LCLs from total B cells; parent: 1.0"}}, "data": [{"substance": "FLAG-EBNA-LP, wild type (B95-8), four W domains W:L25A; W:L28A; W:L29A; Y:L13A; Y:L17A; Y:L18A", "values": [{"measurement": "response", "setting": "[1]", "result": 0}, {"measurement": "response", "setting": "[2]", "result": 0.01}]}]}
